In paper PMC8115694, “Distinct axial and lateral interactions within homologous filaments dictate the signaling specificity and order of the AIM2-ASC inflammasome” (Nature Communications, 2021):

Key:
[1] = target: the molecule itself; test: confocal fluorescence microscopy of fluor-labelled recombinant filaments; two differentially labelled (Alexa488, Dylight550) MBP-tagged PYD populations mixed at 1:1 ratio (1 uM each), polymerisation triggered by cleaving MBP with TEVp
[2] = target: the molecule itself; test: cryo-EM structure; helical reconstruction of the untagged AIM2 (1-117) filament; 2.75 uM protein cleaved for 30 min with 6 uM TEVp

B1: AIM2^PYD (residues 1-94) S94C, fluorophore-labelled (domain or fragment, human, UniProt O14862 1-94, looked up)
chain: MESKYKEILLLTGLDNITDEELDRFKFFLSDEFNIATGKLHTANRIQVATLMIQNAGAVSAVMKTIRIFQKLNYMLLAKRLQEEKEKVDKQYKC
modifications: fluorophore label (Alexa488 or Dylight550; FRET donor or acceptor); S94C for fluorophore labeling
notes: AIM2, human, pyrin domain, residues 1-94; Polymerisation is triggered by cleaving MBP with TEVp; the protein stands as nascent monomer or as preassembled filament; also called MBP-AIM2^PYD; source: MBP cleaved with TEVp in the assay; not shown: MBP, N-terminal, cleaved
B1: binds [1].

B2: AIM2^PYD filament construct with ~20 a.a. of the unstructured linker (residues 1-117), untagged (domain or fragment, human, UniProt O14862 1-117, looked up)
chain: MESKYKEILLLTGLDNITDEELDRFKFFLSDEFNIATGKLHTANRIQVATLMIQNAGAVSAVMKTIRIFQKLNYMLLAKRLQEEKEKVDKQYKSVTKPKPLSQAEMSPAASAAIRND
notes: AIM2 (absent in melanoma 2), human, residues 1-117: PYD plus ~20 a.a. of the unstructured linker; Helical filament; 2.75 uM protein cleaved for 30 min with 6 uM TEVp before freezing; also called AIM2^IRND; source: MBP cleaved with TEVp; not shown: MBP, N-terminal, cleaved
B2: binds [2].
